From US20070086956A1 (Bayer, published 2007)
Where two headings read alike, the source gives them in different places. Where no end group is shown, it is not given here.

Key:
[1] = molecular target: T1, bovine trypsin (type III) (bovine, UniProt P00760 24-246); test: enzyme inhibition, trypsin 48.5 pM
[2] = molecular target: T2, human plasmin (human, UniProt P00747 97-810, limits assumed); test: enzyme inhibition, human plasmin 50 pM
[3] = molecular target: T2, human plasmin; test: enzyme inhibition, human plasmin 50 pM, substrate GPK-AMC
[4] = molecular target: T3, Factor XIa (human, UniProt P03951 19-625); test: enzyme inhibition, FXIa 0.1 nM, substrate Boc-Glu(OBzl)-Ala-Arg-AMC
T3 construct: also called FXIa; Human FXIa

[5] = molecular target: T4, human plasma kallikrein (human, UniProt P03952 20-638); test: enzyme inhibition, human plasma kallikrein […] nM, substrate PFR-AMC
[6] = molecular target: T5, human tissue kallikrein (human, UniProt P06870 25-262); test: enzyme inhibition, human tissue kallikrein 0.35 nM, substrate PFR-AMC
[7] = molecular target: T1, bovine trypsin (type III); test: enzyme inhibition, trypsin 48.5 pM; remark: listed apart in the source
[8] = molecular target: T3, Factor XIa; test: enzyme inhibition, factor XIa 0.1 nM
[9] = molecular target: T6, human factor Xa (human, UniProt P00742 41-179; P00742 235-488, limits assumed); test: enzyme inhibition, factor Xa 0.87 nM
[10] = molecular target: T2, human plasmin; test: enzyme inhibition, human plasmin 50 pM; remark: listed apart in the source
[11] = molecular target: T7, Tissue Factor VIIa; test: enzyme inhibition, method not described
T7 construct: also called TF/FVIIa

[12] = molecular target: T4, human plasma kallikrein; test: enzyme inhibition, human plasma kallikrein 2.5 nM
[13] = molecular target: T8, bovine pancreatic kallikrein (bovine); test: enzyme inhibition, bovine pancreatic kallikrein 100 pM
T8 construct: also called kallikrein-sepharose

[14] = molecular target: tissue plasminogen activator (tPA), single chain form from human melanoma cell culture (human, UniProt P00750 36-562, limits assumed); test: enzyme inhibition, tPA 7.5 nM, chromogenic substrate, A405
Protocol: Inhibition of tissue plasminogen activator (tPA) was also determined as follows: tPA (single chain form from human melanoma cell culture from Sigma Chemical Co, St Louis, Mo.) was pre-incubated with inhibitor for 2 hr at room temperature in 20 mM Tris buffer pH 7.2 containing 150 mM NaCl, and 0.02% sodium azide. […] Formation of p-Nitroaniline was determined from the A405 nm measured following incubation at 37 C for 2 hr.

[15] = molecular target: T5, human tissue kallikrein; test: enzyme inhibition, human tissue kallikrein 0.35 nM, substrate PFR-AMC; remark: listed apart in the source
[16] = molecular target: T9, human neutrophil elastase (human, UniProt P08246 30-247, limits assumed); test: enzyme inhibition, elastase
T9 sequence (looked up): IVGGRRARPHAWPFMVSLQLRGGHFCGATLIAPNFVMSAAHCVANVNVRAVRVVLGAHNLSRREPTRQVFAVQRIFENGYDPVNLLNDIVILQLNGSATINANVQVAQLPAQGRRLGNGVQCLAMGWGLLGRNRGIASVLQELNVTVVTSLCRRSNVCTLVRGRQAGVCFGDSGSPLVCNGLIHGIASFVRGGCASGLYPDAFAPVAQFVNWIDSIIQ
Protocol: (§1) Ki values were determined from Dixon plots of the form 1/V versus performed at two different substrate concentrations (Dixon et al., 1979).

[17] = molecular target: T3, Factor XIa; test: enzyme inhibition, Factor XIa 0.1 nM
[18] = molecular target: T2, human plasmin; test: enzyme inhibition, human plasmin 50 pM; remark: listed apart in the source
[19] = molecular target: T2, human plasmin; test: enzyme inhibition, human plasmin 50 pM; remark: listed apart in the source
[20] = molecular target: T5, human tissue kallikrein; test: enzyme inhibition, human tissue kallikrein
[21] = molecular target: T10, Bovine chymotrypsin (bovine, UniProt P00766 1-13; P00766 16-146; P00766 149-245); test: enzyme inhibition, bovine chymotrypsin 5 nM
[22] = molecular target: human urokinase (human, UniProt P00749 21-431, limits assumed); test: enzyme inhibition, urokinase, substrate GGR-AMC
[23] = molecular target: T4, human plasma kallikrein; test: enzyme inhibition, human plasma kallikrein […] nM
[24] = molecular target: T6, human factor Xa; test: enzyme inhibition, factor Xa 0.87 nM, substrate LGR-AMC
[25] = molecular target: T10, Bovine chymotrypsin; test: enzyme inhibition, chymotrypsin 5 nM, substrate AAPF-pNA
[26] = molecular target: T2, human plasmin; test: enzyme inhibition, human plasmin 50 pM, substrate GPK-AMC; remark: listed apart in the source
[27] = molecular target: T5, human tissue kallikrein; test: enzyme inhibition, human tissue kallikrein 0.35 nM, substrate PFR-AMC; remark: listed apart in the source
[28] = molecular target: T3, Factor XIa; test: enzyme inhibition, factor XIa 0.1 nM, substrate Boc-Glu(OBzl)-Ala-Arg-AMC
[29] = molecular target: T9, human neutrophil elastase; test: enzyme inhibition (Dixon plot), human neutrophil elastase 19 nM, substrate AAPM-AMC
Protocol: as §1

[30] = molecular target: T4, human plasma kallikrein; test: enzyme inhibition, plasma kallikrein (apparent Ki)
[31] = molecular target: T8, bovine pancreatic kallikrein; test: enzyme inhibition, bovine pancreatic kallikrein 92.0 pM

T2 sequence (P00747 97-810 limits assumed): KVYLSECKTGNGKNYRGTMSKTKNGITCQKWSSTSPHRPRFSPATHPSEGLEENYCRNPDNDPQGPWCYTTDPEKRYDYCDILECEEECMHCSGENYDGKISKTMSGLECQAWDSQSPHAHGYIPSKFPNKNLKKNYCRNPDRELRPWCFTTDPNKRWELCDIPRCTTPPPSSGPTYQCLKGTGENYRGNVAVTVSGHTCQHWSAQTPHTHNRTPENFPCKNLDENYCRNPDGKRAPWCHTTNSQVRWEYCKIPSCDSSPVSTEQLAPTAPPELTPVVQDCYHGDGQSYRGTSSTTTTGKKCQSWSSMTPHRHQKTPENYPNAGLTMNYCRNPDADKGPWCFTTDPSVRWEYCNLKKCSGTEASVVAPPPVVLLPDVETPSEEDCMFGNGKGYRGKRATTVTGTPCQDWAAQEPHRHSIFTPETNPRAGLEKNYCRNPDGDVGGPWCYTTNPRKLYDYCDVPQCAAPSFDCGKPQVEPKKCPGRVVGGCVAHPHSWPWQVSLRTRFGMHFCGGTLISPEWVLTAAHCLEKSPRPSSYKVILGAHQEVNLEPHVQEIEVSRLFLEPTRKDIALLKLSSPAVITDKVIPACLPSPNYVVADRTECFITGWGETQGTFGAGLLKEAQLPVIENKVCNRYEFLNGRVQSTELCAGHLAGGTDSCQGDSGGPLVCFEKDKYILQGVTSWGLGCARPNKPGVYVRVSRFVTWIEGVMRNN
T5 sequence (P06870 25-262 limits assumed): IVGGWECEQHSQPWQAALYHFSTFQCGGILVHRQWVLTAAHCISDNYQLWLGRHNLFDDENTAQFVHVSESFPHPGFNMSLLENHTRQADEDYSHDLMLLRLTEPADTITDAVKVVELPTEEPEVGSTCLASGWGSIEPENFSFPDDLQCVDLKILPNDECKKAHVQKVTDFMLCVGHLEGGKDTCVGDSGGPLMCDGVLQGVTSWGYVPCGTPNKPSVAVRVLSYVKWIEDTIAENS
T4 sequence (P03952 20-638 limits assumed): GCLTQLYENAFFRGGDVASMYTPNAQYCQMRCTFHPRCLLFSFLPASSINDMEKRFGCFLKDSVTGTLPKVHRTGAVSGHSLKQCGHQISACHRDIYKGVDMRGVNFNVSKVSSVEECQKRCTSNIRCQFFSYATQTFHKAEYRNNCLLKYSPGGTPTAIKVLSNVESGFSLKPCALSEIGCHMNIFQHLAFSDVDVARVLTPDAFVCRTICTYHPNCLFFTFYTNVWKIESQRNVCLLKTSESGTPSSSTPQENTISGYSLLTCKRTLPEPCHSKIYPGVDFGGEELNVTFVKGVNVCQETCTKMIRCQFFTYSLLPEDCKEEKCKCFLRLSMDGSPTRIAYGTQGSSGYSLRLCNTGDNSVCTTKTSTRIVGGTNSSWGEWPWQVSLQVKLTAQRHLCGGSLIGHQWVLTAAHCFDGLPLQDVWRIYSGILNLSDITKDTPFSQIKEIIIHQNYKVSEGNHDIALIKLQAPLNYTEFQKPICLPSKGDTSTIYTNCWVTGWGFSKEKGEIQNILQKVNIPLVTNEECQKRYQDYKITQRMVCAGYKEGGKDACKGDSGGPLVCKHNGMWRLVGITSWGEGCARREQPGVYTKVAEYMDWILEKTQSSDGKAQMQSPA
T6 sequence (P00742 41-179 limits assumed, chain 1 of 2): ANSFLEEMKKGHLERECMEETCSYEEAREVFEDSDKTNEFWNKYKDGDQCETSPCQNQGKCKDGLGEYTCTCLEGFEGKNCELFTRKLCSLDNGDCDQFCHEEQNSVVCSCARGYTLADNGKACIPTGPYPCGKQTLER
T6 sequence (P00742 235-488 limits assumed, chain 2 of 2): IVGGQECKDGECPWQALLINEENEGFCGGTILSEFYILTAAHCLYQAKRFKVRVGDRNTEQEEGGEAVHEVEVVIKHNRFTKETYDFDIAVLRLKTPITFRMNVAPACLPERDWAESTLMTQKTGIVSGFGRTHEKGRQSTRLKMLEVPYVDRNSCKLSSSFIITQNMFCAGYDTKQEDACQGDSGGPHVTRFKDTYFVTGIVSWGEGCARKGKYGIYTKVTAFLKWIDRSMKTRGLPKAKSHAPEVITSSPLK
T1 sequence (P00760 24-246): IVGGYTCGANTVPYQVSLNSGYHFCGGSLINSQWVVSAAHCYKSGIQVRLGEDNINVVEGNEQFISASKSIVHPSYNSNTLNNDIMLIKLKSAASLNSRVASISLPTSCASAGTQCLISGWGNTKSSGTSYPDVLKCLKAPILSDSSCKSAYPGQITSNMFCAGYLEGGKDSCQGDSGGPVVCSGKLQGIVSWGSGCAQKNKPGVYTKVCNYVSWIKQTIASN
tissue plasminogen activator (tPA), single chain form from human melanoma cell culture, sequence (P00750 36-562 limits assumed): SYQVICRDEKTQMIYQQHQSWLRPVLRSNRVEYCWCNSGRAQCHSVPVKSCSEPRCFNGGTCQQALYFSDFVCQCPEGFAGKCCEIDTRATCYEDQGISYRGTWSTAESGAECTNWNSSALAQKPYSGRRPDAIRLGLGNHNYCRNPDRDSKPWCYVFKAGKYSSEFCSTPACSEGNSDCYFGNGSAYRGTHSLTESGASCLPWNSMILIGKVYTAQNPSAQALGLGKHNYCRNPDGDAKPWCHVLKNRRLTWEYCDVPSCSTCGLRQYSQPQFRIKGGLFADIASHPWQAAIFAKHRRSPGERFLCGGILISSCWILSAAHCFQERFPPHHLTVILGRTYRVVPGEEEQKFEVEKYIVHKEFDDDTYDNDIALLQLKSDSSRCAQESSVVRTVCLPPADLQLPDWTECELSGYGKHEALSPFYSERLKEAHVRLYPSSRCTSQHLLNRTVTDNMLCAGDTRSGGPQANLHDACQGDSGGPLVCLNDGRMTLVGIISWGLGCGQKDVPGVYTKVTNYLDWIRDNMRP

B1: native human placental bikunin isolated from placenta (other)
chain: ADRERSIHDFCLVSKVVGRCRASMPRWWYNVTDGSCQLFVYGGCDGNSNNYLTKEECLKKCATVTENATGDLATSRNAADSSVPSAPRRQDSEDHSSDMFNYEEYCTANAVTGPCRASFPRWYFDVERNSCNNFIYGGCRGNKNSYRSEEACMLRCFRQQENPPLPLGSK
modifications: Asn 30 silent in sequencing, likely glycosylated
notes: Soluble protein purified from human placenta; A minor species started at residue 6; also called native Placental Bikunin (1-179)
B1 showed a Ki [1] of 0.13 nM and a Ki [2] of 1.9 nM.

B2: CHO expressed placental bikunin (1-170) (other)
chain: ADRERSIHDFCLVSKVVGRCRASMPRWWYNVTDGSCQLFVYGGCDGNSNNYLTKEECLKKCATVTENATGDLATSRNAADSSVPSAPRRQDSEDHSSDMFNYEEYCTANAVTGPCRASFPRWYFDVERNSCNNFIYGGCRGNKNSYRSEEACMLRCFRQQENPPLPLGSK
modifications: N-linked carbohydrate at Asn-30 and Asn-61 (so in the source)
notes: Glycosylated isoforms of 21-38 kDa; also called CHO Bikunin (1-170)
Binder B2 has a Ki [3] of 0.2 nM, a Ki [4] of 1.9 nM and a Ki [5] of 0.5 nM. For the same binder, the Ki [6] was 0.3 nM.

B3: placental bikunin (1-170) derived from a baculovirus/Sf9 expression system (other)
chain: ADRERSIHDFCLVSKVVGRCRASMPRWWYNVTDGSCQLFVYGGCDGNSNNYLTKEECLKKCATVTENATGDLATSRNAADSSVPSAPRRQDSEDHSSDMFNYEEYCTANAVTGPCRASFPRWYFDVERNSCNNFIYGGCRGNKNSYRSEEACMLRCFRQQENPPLPLGSK
notes: Both Kunitz domains, truncated before the transmembrane segment; N-terminus ADRER confirmed, so the signal peptide was removed; also called Recombinant Bikunin; recombinant placental bikunin (1-170)
Binder B3 has a Ki [7] of 0.064 nM, a Ki [8] of 3 nM and a Ki [9] of 180 nM. The Ki [10] was 0.23 nM, the Ki [11] was 800 nM and the Ki [12] was 0.18 nM. For the same binder, the Ki [13] was 0.12 nM, the Ki [14] was under 60 nM and the Ki [15] was 0.04 nM.

B4: synthetic placental bikunin (102-159) (other)
chain: YEEYCTANAVTGPCRASFPRWYFDVERNSCNNFIYGGCRGNKNSYRSEEACMLRCFRQ
modifications: disulfide (positions not given here)
notes: also called KID2
Binder B4 has a Ki [16] of 323 nM, a Ki [17] of 15 nM and a Ki [18] of 1.8 nM. It also gave a Ki [19] of 1.8 nM, a Ki [20] of 0.13 nM and a Ki [21] of 0.2 nM. The Ki [22] was 11 µM, the Ki [23] was 0.7 nM and the Ki [24] was 274 nM. For the same binder, the Ki [25] was 0.24 nM, the Ki [26] was 1.8 nM and the Ki [27] was 0.13 nM. For the same binder, the Ki [28] was 15 nM and the Ki [29] was 323 nM.

B5: placental bikunin (102-159) expressed in yeast strain SC101 (recombinant 2.4) and purified (other)
chain: YEEYCTANAVTGPCRASFPRWYFDVERNSCNNFIYGGCRGNKNSYRSEEACMLRCFRQ
notes: also called placental bikunin C-terminal domain
B5 was tested, and the Ki [30] was 0.35 nM.

B6: synthetic placental bikunin (7-64), first preparation of Example 2 (other)
chain: IHDFCLVSKVVGRCRASMPRWWYNVTDGSCQLFVYGGCDGNSNNYLTKEECLKKCATV
notes: also called placental bikunin fragment (7-64); KID1
In the case of B6, the Ki [21] is reported as 0.6 nM and the Ki [31] is reported as 0.4 nM.
